Measurements as given in US20040005554A1.

Experiments:
[1] = target: ARP-GFP fusion protein (human ARP, Leu form from pBSSKII ARP.4, fused to EGFP of pEGFP-N2) (human); experiment: anti-GFP plate capture, detection with anti-FLAG M2 and anti-mouse IgG-AP; concentrated medium of cotransfection
[2] = target: ARP-GFP fusion protein (human ARP, Leu form from pBSSKII ARP.4, fused to EGFP of pEGFP-N2) (human); experiment: anti-GFP plate capture, detection with anti-FLAG M2 and anti-mouse IgG-AP; unconcentrated medium of cotransfection

FLAG-BRP fusion protein (N-terminal FLAG tag on predicted mature human BRP, secreted through the mouse preprotrypsin signal), sequence (Q86YW7 other isoform, or with tags, fused parts or gaps limits assumed): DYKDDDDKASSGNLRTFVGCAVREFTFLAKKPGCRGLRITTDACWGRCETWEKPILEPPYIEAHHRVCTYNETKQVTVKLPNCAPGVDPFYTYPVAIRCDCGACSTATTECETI

Substance: FLAG-BRP fusion protein (N-terminal FLAG tag on predicted mature human BRP, secreted through the mouse preprotrypsin signal) (from UniProt Q86YW7 25-130)
- Abs 405 nm [1]: 1.41 Abs 405 nm
- Abs 405 nm [2]: 0.972 Abs 405 nm
